In patent publication US20160216264A1 (WASHINGTON UNIVERSITY, published 2016):

T1: peptide 2 (synthetic peptide corresponding to the epitope for mAb 12H06) (human)
T1 peptide: RPYYQGLIDKYC

T2: rat myo-inositol oxygenase (Miox) (rat, UniProt Q9QXN4 1-285)
T2 construct: also called rat Miox; rat MIOX
T2 sequence (looked up): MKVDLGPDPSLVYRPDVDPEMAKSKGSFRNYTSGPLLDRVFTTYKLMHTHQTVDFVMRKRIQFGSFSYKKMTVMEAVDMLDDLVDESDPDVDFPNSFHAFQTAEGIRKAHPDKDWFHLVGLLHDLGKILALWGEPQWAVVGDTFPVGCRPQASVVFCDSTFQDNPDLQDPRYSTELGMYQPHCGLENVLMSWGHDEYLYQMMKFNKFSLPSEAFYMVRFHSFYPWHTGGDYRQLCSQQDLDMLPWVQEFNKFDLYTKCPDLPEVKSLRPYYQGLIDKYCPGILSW

T3: peptide 1 (synthetic peptide corresponding to the epitope for mAb 01D10) (human)
T3 peptide: PSLVYRPDVDPEV

T4: mouse myo-inositol oxygenase (Miox) (mouse, UniProt Q9QXN5 1-285)
T4 construct: also called mouse Miox; mouse MIOX
T4 sequence (looked up): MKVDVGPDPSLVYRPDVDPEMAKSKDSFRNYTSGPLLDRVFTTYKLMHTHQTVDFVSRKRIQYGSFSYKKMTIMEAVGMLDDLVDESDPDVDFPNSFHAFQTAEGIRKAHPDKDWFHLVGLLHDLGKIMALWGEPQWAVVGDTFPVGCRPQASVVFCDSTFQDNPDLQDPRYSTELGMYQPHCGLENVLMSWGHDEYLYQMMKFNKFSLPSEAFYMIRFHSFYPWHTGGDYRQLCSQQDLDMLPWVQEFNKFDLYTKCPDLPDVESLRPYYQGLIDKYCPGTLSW


Experiments:
[1] = target: T1, peptide 2 (synthetic peptide …); experiment: peptide preincubation (one hour), then immunoblot
Procedure: (§1) FIG. 4A and FIG. 4B depict images of immunoblots showing confirmation of specific antibody epitopes by blocking mAb binding to endogenous MIOX. (FIG. 4A) The peptides corresponding to the epitopes for mAb 01D10 (peptide 1) and mAb 12H06 (peptide 2) were synthesized. mAb 01D10 was pre-incubated for one hour with buffer alone, 100 μg/ml peptide 1, or 100 μg/ml peptide 2. (FIG. 4B) Western inhibition of mAb 12H06 using either peptide 1 or peptide 2.
(§2) The linear epitopes of the anti-MIOX antibodies were determined by use of spot-peptide membrane arrays containing the full length amino acid sequence of MIOX. The two mouse monoclonal antibodies mapped to opposite ends of the MIOX sequence (FIG. 3B). The antibody designated 01D10 mapped to the N-terminal sequence of MIOX (FIG. 3C). The peptide spots were decoded to reveal the sequence P9-V21. The mouse monoclonal antibody designated 12H06 mapped to the C-terminal region of MIOX (FIG. 3C). The peptide spots were decoded to reveal the epitope sequence R268-C279. […] The peptide epitope recognized by the 12H06 mouse monoclonal antibody was 100% identical to the corresponding mouse and rat Miox peptide sequence. The peptide epitope recognized by the 01D10 mouse monoclonal antibody was 92% identical to the corresponding mouse and rat Miox peptide sequence. […]

[2] = target: T2, rat myo-inositol oxygenase (Miox); experiment: Western blot of rat kidney homogenate
Procedure: (§3) The cross-species immunoreactivity of the anti-MIOX monoclonal antibodies was investigated (FIG. 3D,E). Human, mouse, and rat kidney homogenates were separately probed with both monoclonal anti-MIOX antibodies.
(§4) Normal human kidney homogenate was purchased from G-Biosciences (NLH-04, G-Biosciences). Mouse and rat kidney homogenate was purchased from G-Biosciences, St. Louis, Mo. Western blotting was performed as previously described (Laterza O F, et al. Clin Chem 2006; 52:1713-1721). Blots were probed with 0.004 mg/mL of the rabbit polyclonal anti-MIOX antibody R9544 or 0.004 mg/mL of either the 01D10 or 12H06 mouse anti-MIOX monoclonal antibody. Where indicated, both monoclonal antibodies were used simultaneously, each at the above concentrations.

[3] = target: T3, peptide 1 (synthetic peptide …); experiment: peptide preincubation, then immunoblot
Procedure: as §1, §2

[4] = target: T4, mouse myo-inositol oxygenase (Miox); experiment: Western blot of mouse kidney homogenate
Procedure: as §3, §4

Row | binding result [1] | binding result [2] | binding result [3] | binding result [4] | Binder
1 | no binding (tested: 100 µg/ml) |  |  |  | mouse monoclonal anti-MIOX antibody 01D10 (antibody, IgG2b, V domains shown, they run a few residues into the constant regions; Biotinylated when used as capping antibody in the sandwich immunoassay; also called mAb 01D10) VH: QVQLQQSGPELVKPGASVKISCKASGYSFTSYYIHWVKQRPGQGLEWIGWIYPGSGNSKYNEKFKGKATLTADTSSSTAYMQLSSLTSEDSAVYYCARDGSTYNWNFDVWGTGTTVTVSS VL: DIQMTQSPASLSASVGETVTITCRTSGNIHNYLAWYQQKQGKSPQLLVYNAKTLADGVPSRFSGSGSGTQYSLKINSLQPEDFGSYYCQHFWSIPFTFGSGTKLEIKR
2 |  | binds | no binding (tested: 100 µg/ml) | binds | mouse monoclonal anti-MIOX antibody 12H06 (antibody, IgG2b, V domains shown, the VH entry runs a few residues into CH1; also called mAb 12H06) VH: QVQLQQPGAELVRPGTSVKLSCKASGYTFTSYWMHWVKQRPGQGLEWIGLIDPSDSYTNYNQKFKGKATLTVDTSSSTASMQLSSLTSEDSAVYYCVRTYYHSSYFFAYWGQGTLVTVSS VL: DIVVTQSPASFAVSLGQRATISCRASKSVSTSGYSYINWYQQKPGQPPKLLIYLASNLESGVPARFSGSGSGTDFTLNIHPVEEEDAATYYCQHSRELPLTFGAGTRLELK
